Results published in publication PMC3273809.
Where two headings read alike, the source gives them in different places.

Tests used:
Assay in all cases: SPR
Lon [1] = biological target: T1, Lon (Escherichia coli, UniProt P0A9M0 1-784)
TrfA G254D/S267L = biological target: T2, TrfA G254D/S267L (plasmid RK2, UniProt P07676 98-382, G254D;S267L)
T2 sequence: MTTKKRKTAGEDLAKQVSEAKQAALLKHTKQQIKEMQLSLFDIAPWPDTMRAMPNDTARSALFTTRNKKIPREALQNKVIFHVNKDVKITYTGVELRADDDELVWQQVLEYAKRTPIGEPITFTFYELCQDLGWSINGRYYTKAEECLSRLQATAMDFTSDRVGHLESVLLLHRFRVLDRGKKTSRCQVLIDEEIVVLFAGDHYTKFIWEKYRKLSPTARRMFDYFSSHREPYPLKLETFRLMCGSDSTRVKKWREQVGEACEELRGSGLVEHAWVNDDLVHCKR

ClpA = biological target: T3, ClpA (Escherichia coli, UniProt P0ABH9 1-758)
T3 sequence: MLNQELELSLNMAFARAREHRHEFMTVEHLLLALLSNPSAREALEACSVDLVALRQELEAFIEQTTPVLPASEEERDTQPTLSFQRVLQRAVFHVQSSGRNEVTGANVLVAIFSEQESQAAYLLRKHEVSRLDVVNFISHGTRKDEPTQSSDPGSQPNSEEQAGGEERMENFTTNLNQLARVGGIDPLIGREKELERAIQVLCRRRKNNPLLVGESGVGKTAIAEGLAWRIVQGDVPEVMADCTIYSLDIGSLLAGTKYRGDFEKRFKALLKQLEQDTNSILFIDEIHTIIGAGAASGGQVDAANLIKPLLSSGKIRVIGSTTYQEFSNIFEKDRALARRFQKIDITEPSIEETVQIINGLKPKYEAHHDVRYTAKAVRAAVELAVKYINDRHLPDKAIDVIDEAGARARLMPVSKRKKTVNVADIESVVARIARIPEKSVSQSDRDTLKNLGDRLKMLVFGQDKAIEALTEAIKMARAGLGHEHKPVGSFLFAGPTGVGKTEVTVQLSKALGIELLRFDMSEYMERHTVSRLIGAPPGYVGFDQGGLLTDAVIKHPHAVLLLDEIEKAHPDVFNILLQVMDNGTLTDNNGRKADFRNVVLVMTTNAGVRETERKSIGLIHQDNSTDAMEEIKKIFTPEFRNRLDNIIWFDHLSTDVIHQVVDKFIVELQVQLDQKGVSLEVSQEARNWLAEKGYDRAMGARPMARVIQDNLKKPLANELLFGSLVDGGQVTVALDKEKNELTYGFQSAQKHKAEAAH

TrfA wt (His6-TrfA-33) = biological target: T4, TrfA wt (His6-TrfA-33) (plasmid RK2, UniProt P07676 98-382)
T4 sequence: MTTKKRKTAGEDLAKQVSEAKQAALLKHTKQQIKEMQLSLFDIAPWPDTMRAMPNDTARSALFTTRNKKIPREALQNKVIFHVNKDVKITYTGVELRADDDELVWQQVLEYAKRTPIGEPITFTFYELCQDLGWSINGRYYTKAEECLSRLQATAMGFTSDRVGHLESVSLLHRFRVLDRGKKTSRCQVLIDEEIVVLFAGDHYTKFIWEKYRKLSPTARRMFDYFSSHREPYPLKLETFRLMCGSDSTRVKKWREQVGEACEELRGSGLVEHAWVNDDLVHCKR

[2] = biological target: Lon;TrfA P151S/G254D/S267L (Escherichia coli;plasmid RK2, UniProt P0A9M0;P07676 1-784;98-382, |P151S;G254D;S267L)
Lon [3] = biological target: T1, Lon; remark: listed apart in the source

Measured: binding result

B1: frag1 (five RK2 oriV iterons, 129 bp) (dsDNA)
DNA 1: CCTGCGGTATTGACACTTGAGGGGCGCGACTACTGACAGATGAGGGGCGCGATCCTTGACACTTGAGGGGCAGAGTGATGACAGATGAGGGGCGCACCTATTGACATTTGAGGGGCTGTCCACAGGCAG
DNA 2: CTGCCTGTGGACAGCCCCTCAAATGTCAATAGGTGCGCCCCTCATCTGTCATCACTCTGCCCCTCAAGTGTCAAGGATCGCGCCCCTCATCTGTCAGTAGTCGCGCCCCTCAAGTGTCAATACCGCAGG
binds: Lon [1] | TrfA G254D/S267L | ClpA | TrfA wt (His6-TrfA-33)

B2: frag2 (pUC19 fragment, 129 bp) (dsDNA)
DNA 1: AGCTCACAATTCCACACAACATACGAGCCGGAAGCATAAAGTGTAAAGCCTGGGGTGCCTAATGAGTGAGCTAACTCACATTAATTGCGTTGCGCTCACTGCCCGCTTTCCAGTCGGGAAACCTGTCGT
DNA 2: ACGACAGGTTTCCCGACTGGAAAGCGGGCAGTGAGCGCAACGCAATTAATGTGAGTTAGCTCACTCATTAGGCACCCCAGGCTTTACACTTTATGCTTCCGGCTCGTATGTTGTGTGGAATTGTGAGCT
binds: ClpA | [2] | Lon [3]
